Data from publication PMC7725785 (2020).
Where two headings read alike, the source gives them in different places. Where no end group is shown, it is not given here. [ ]: non-standard residue; d: D form.

T1: GST-tagged TRIB3 (human, UniProt Q96RU7 1-358)
T1 chain: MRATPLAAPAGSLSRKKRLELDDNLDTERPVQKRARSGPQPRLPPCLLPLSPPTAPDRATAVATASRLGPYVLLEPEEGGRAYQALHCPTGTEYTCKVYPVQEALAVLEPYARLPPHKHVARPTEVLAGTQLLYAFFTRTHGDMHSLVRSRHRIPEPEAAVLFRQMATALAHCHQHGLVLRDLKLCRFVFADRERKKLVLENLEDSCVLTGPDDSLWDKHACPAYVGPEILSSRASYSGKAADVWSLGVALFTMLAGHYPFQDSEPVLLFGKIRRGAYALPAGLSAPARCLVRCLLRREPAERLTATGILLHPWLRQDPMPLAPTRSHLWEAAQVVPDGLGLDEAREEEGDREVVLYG


Columns and labels:
Assay in all cases: SPR
GST-tagged TRIB3 [1] = molecular target: T1, GST-tagged TRIB3
GST-tagged TRIB3 [2] = molecular target: T1, GST-tagged TRIB3
MAX protein (SPR) [3] = molecular target: T2, MAX protein (SPR) (human, UniProt P61244 1-160)
T2 sequence (P61244 whole entry): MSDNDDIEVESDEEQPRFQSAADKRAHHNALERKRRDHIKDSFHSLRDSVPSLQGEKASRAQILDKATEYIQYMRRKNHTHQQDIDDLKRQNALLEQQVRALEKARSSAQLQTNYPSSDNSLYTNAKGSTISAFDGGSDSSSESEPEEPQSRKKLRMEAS

MAX protein (SPR) [4] = molecular target: T2, MAX protein (SPR); remark: listed apart in the source
GST-tagged TRIB3 [5] = molecular target: T1, GST-tagged TRIB3

koff (GST-tagged TRIB3 [1]) [s⁻¹]	Kd (GST-tagged TRIB3 [2]) [µM]	koff (MAX protein (SPR) [3]) [s⁻¹]	Kd (MAX protein (SPR) [4]) [µM]	koff (GST-tagged TRIB3 [5]) [s⁻¹]	Binder
		0.0417	12.8	0.0769	[dK][dR][dR][dE][dQ][dL][dK][dH][dK][dL][dE][dQ][dL][dR] [CM4 peptide]
0.000434	0.707				[dQ][dA][dE][dE][dQ][dK][dL][dI][dS][dE][dE][dD][dL][dL][dR] [CM3 peptide]

The remaining lines, values behind:

Binder	koff (GST-tagged TRIB3 [1]) [s⁻¹]	Kd (GST-tagged TRIB3 [2]) [µM]	koff (MAX protein (SPR) [3]) [s⁻¹]	Kd (MAX protein (SPR) [4]) [µM]	koff (GST-tagged TRIB3 [5]) [s⁻¹]
[dK][dV][dV][dI][dL][dK][dK][dA][dT][dA][dY][dI][dL][dS][dV] [CM2 peptide]	0.0166	8.17			
[dE][dR][dQ][dR][dR][dN][dE][dL][dK][dR][dS][dF][dF][dA][dL][dR] [CM1 peptide]	0.00531	3.4	0.0099	0.897	
